Experimental data published in US20060269549A1 (APPLIED MOLECULAR EVOLUTION, published 2006).
Each block holds one binder with its values, some of them ahead of it.

How the values were obtained:
human TNF-α [1] = biological target: T1, human TNF-α (human, UniProt P01375 77-233); test: ELISA, Fab dilution series on human TNF-α (Example 1; the filing does not say which of its two ELISA formats: hTNF-α-coated plate, or Fab captured on anti-human kappa with 5 nM biotinylated hTNF-α)
T1 construct: It was biotinylated in some screening assays; also called hTNF-α; hTNF

human TNF-α [2] = biological target: T1, human TNF-α; test: cell-based or functional assay
human TNF-α [3] = biological target: T1, human TNF-α; test: KinExA 3000 kinetic exclusion assay
human TNF-α [4] = biological target: T1, human TNF-α; test: calculated from Kd = koff/kon (KinExA)
Protocol: (§1) Next, binding kinetics of three of the Fab fragments described in Table 4 were determined in a kinetic exclusion assay. Affinity measurements were performed on a KinExA™3000 instrument (Sapidyne Instruments, Inc., Boise, Id.) using Fab fragments (A10K, A9K, and A10P) released from the periplasmic space whose concentration was determined by a quantitative ELISA. Briefly, antigen and antibody fragment were allowed to react in solution and the fraction of unbound reagent was determined by capture and measured on a bead support. Binding kinetics can be determined or calculated from the amount of unbound reagent. For instance, after interaction between TNF-α and a Fab fragment has occurred in solution, binding of the unreacted, free Fab fragment to TNF-α coated beads can be measured on the instrument by detection with a labeled secondary antibody to the Fab fragment (e.g., a goat anti-IgG (heavy and light)). […] For A10K and A10P, the Fab concentration was 10 pM with the human TNF-α concentration beginning at 160 pM and then serially diluted to 0.078 pM with the final tube containing no human TNF-α. A9K incubation was set in a similar manner, with the Fab at a constant concentration of 20 pM and human TNF-α serially diluted beginning at 500 pM with a final concentration of 0.24 pM. After the incubation, the amount of unbound Fab in the equilibrated samples was determined on the KinExA™3000 instrument according to the manufacturer's instructions. Kd values were determined by the instrument software.
To measure kₒₙ, individual Fab fragments at a concentration of 40 pM were mixed with 400 pM of hTNF-α. A series of measurements were taken over a time course. The resulting data was used to calculate the kₒₙ with the instrument software. koff was calculated by using the formula Kd=koff/kₒₙ.

human TNF-α [5] = biological target: T1, human TNF-α; test: KinExA 3000 kinetic exclusion assay, 40 pM Fab mixed with 400 pM hTNF-α, time course
Protocol: (§2) Next, binding kinetics of three of the Fab fragments described in Table 4 were determined in a kinetic exclusion assay. Affinity measurements were performed on a KinExA™3000 instrument (Sapidyne Instruments, Inc., Boise, Id.) using Fab fragments (A10K, A9K, and A10P) released from the periplasmic space whose concentration was determined by a quantitative ELISA. Briefly, antigen and antibody fragment were allowed to react in solution and the fraction of unbound reagent was determined by capture and measured on a bead support. Binding kinetics can be determined or calculated from the amount of unbound reagent. For instance, after interaction between TNF-α and a Fab fragment has occurred in solution, binding of the unreacted, free Fab fragment to TNF-α coated beads can be measured on the instrument by detection with a labeled secondary antibody to the Fab fragment (e.g., a goat anti-IgG (heavy and light)). […] After the incubation, the amount of unbound Fab in the equilibrated samples was determined on the KinExA™3000 instrument according to the manufacturer's instructions. Kd values were determined by the instrument software.
(§3) To measure kₒₙ, individual Fab fragments at a concentration of 40 pM were mixed with 400 pM of hTNF-α. […] The resulting data was used to calculate the kₒₙ with the instrument software. koff was calculated by using the formula Kd=koff/kₒₙ.

human TNF-α [6] = biological target: T1, human TNF-α; test: KinExA 3000 kinetic exclusion assay, periplasmic Fab with hTNF-α in solution, 20 h at 20 C
Protocol: as §1

human TNF-α [7] = biological target: T1, human TNF-α; test: KinExA 3000 kinetic exclusion assay, 40 pM Fab mixed with 400 pM hTNF-α, time course; lower end of the printed range for A10K
Protocol: as §2, §3

T1 sequence (P01375 77-233 limits assumed): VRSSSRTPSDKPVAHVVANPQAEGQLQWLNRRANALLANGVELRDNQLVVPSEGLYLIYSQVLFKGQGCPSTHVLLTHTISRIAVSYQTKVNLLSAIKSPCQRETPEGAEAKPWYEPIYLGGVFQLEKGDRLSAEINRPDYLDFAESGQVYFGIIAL

EC50, L929 cell protection assay (FIG. 10) (human TNF-α [2]): ~2.7 pM
B2: A10K IgG (antibody, V domains shown)
VH: EVQLVESGGGLVQPGGSLRLSCAASGFKFSNHWMNWVRQAPGKGLEWVGEIRSKSMNSATHYAESVKGRFTISRDDSKNSLYLQMNSLKTEDTAVYYCARNYYGSTYDHWGQGTLVTVSS
VL: EIVLTQSPDFQSVTPKEKVTITCRASQFVGYSIHWYQQKPDQSPKLLIKYASESRSGVPSRFSGSGSGTDFTLTINSLEAEDAATYYCQQSHSWHFTFGQGTKVEIK

Kd (human TNF-α [3]): 0.01 pM
koff (human TNF-α [3]): 2.6e-08 s⁻¹
kon (human TNF-α [3]): 2.6e+06 M⁻¹ s⁻¹
B3: AME 3-2 antibody (antibody, V domains shown)
VH: EVQLVESGGGLVQPGGSLRLSCAASGFTFRNHWMNWVRQAPGKGLEWVGEIRSKSINSATFYAESVKGRFTISRDDSKNSLYLQMNSLKTEDTAVYYCARNYYGSYYDHWGQGTLVTVSS
VL: DIQMTQSPSSLSASVGDRVTITCVTTQFVGYAIHWYQQKPGKAPKLLIYYASSSRSGVPSRFSGSGSGTDFTLTISSLQPEDFATYYCQQSHGWPFTFGQGTKVEIK

binding result (human TNF-α [1]): binds
B9: hu1 Fab fragment (Fab, V domains shown)
VH: EVQLVESGGGLVQPGGSLRLSCAASGFTFSNHWMNWVRQAPGKGLEWVGEIRSKSINSATHYAESVKGRFTISRDDSKNSLYLQMNSLKTEDTAVYYCARNYYGSTYDHWGQGTLVTVSS
VL: EIVLTQSPDFQSVTPKEKVTITCRASQFVGSSIHWYQQKPDQSPKLLIKYASESMSGVPSRFSGSGSGTDFTLTINSLEAEDAATYYCQQSHSWHFTFGQGTKVEIK
notes: Parent Fab with fully human frameworks

koff (human TNF-α [4]): 8.2e-06 s⁻¹
kon (human TNF-α [5]): 4.1e+06 M⁻¹ s⁻¹
Kd (human TNF-α [6]): 2 pM
EC50 (read off the curve) (human TNF-α [1]): ~0.02 mg/L
B10: A10P Fab fragment (Fab, name in Kabat numbering, V domains shown)
VH: EVQLVESGGGLVQPGGSLRLSCAASGFPFSNHWMNWVRQAPGKGLEWVGEIRSKSMNSATHYAESVKGRFTISRDDSKNSLYLQMNSLKTEDTAVYYCARNYYGSTYDHWGQGTLVTVSS
VL: EIVLTQSPDFQSVTPKEKVTITCRASQFVGYSIHWYQQKPDQSPKLLIKYASESRSGVPSRFSGSGSGTDFTLTINSLEAEDAATYYCQQSHSWHFTFGQGTKVEIK

Second part, the binder before the results:

B1: 2E7K Fab fragment (Fab, name in Kabat numbering, V domains shown)
VH: EVQLVESGGGLVQPGGSLRLSCAASGFKFSNHWMNWVRQAPGKGLEWVGEIRSKSMNSATHYARSVKGRFTISRDDSKNSLYLQMNSLKTEDTAVYYCARNYYGSTYDHWGQGTLVTVSS
VL: EIVLTQSPDFQSVTPKEKVTITCRASQFVGLSIHWYQQKPDQSPKLLIKYASESRSGVPSRFSGSGSGTDFTLTINSLEAEDAATYYCQQSHSWHFTFGQGTKVEIK
EC50 (read off the curve) (human TNF-α [1]): ~0.02 mg/L

B4: A9K Fab fragment (Fab, name in Kabat numbering, V domains shown)
VH: EVQLVESGGGLVQPGGSLRLSCAASGFKFSNHWMNWVRQAPGKGLEWVGEIRSKSMNSATHYARSVKGRFTISRDDSKNSLYLQMNSLKTEDTAVYYCARNYYGSTYDHWGQGTLVTVSS
VL: EIVLTQSPDFQSVTPKEKVTITCRASQFVGMSIHWYQQKPDQSPKLLIKYASESKSGVPSRFSGSGSGTDFTLTINSLEAEDAATYYCQQSHSWHFTFGQGTKVEIK
koff (human TNF-α [4]): 6.2e-06 s⁻¹
kon (human TNF-α [5]): 2.6e+06 M⁻¹ s⁻¹
Kd (human TNF-α [6]): 2.4 pM
EC50 (read off the curve) (human TNF-α [1]): ~0.02 mg/L

B5: A9P Fab fragment (Fab, name in Kabat numbering, V domains shown)
VH: EVQLVESGGGLVQPGGSLRLSCAASGFPFSNHWMNWVRQAPGKGLEWVGEIRSKSMNSATHYARSVKGRFTISRDDSKNSLYLQMNSLKTEDTAVYYCARNYYGSTYDHWGQGTLVTVSS
VL: EIVLTQSPDFQSVTPKEKVTITCRASQFVGMSIHWYQQKPDQSPKLLIKYASESKSGVPSRFSGSGSGTDFTLTINSLEAEDAATYYCQQSHSWHFTFGQGTKVEIK
EC50 (read off the curve) (human TNF-α [1]): ~0.02 mg/L

B6: 2E7P Fab fragment (Fab, name in Kabat numbering, V domains shown)
VH: EVQLVESGGGLVQPGGSLRLSCAASGFPFSNHWMNWVRQAPGKGLEWVGEIRSKSMNSATHYARSVKGRFTISRDDSKNSLYLQMNSLKTEDTAVYYCARNYYGSTYDHWGQGTLVTVSS
VL: EIVLTQSPDFQSVTPKEKVTITCRASQFVGLSIHWYQQKPDQSPKLLIKYASESRSGVPSRFSGSGSGTDFTLTINSLEAEDAATYYCQQSHSWHFTFGQGTKVEIK
EC50 (read off the curve) (human TNF-α [1]): ~0.03 mg/L

B7: 2C6K Fab fragment (Fab, name in Kabat numbering, V domains shown)
VH: EVQLVESGGGLVQPGGSLRLSCAASGFKFSNHWMNWVRQAPGKGLEWVGEIRSKSINSATHYARSVKGRFTISRDDSKNSLYLQMNSLKTEDTAVYYCARNYYGSTYDHWGQGTLVTVSS
VL: EIVLTQSPDFQSVTPKEKVTITCRASQFVGLSIHWYQQKPDQSPKLLIKYASEYMSGVPSRFSGSGSGTDFTLTINSLEAEDAATYYCQQSHSWHFTFGQGTKVEIK
EC50 (read off the curve) (human TNF-α [1]): ~0.02 mg/L

B8: A10K Fab fragment (Fab, V domains shown)
VH: EVQLVESGGGLVQPGGSLRLSCAASGFKFSNHWMNWVRQAPGKGLEWVGEIRSKSMNSATHYAESVKGRFTISRDDSKNSLYLQMNSLKTEDTAVYYCARNYYGSTYDHWGQGTLVTVSS
VL: EIVLTQSPDFQSVTPKEKVTITCRASQFVGYSIHWYQQKPDQSPKLLIKYASESRSGVPSRFSGSGSGTDFTLTINSLEAEDAATYYCQQSHSWHFTFGQGTKVEIK
notes: Fab released from the E. coli periplasm; Mutations against hu1: light S31Y, M55R; heavy T28K, I53M
EC50, L929 cell protection assay (FIG. 8) (human TNF-α [2]): ~25 pM
EC50, L929 cell protection assay (FIG. 9) (human TNF-α [2]): ~67 pM
koff (human TNF-α [4]): 1.96e-05 to 3.76e-05 s⁻¹
Kd (human TNF-α [6]): 3.5 to 7.2 pM
kon (human TNF-α [7]): 3.9e+06 to 7.51e+06 M⁻¹ s⁻¹
EC50 (read off the curve) (human TNF-α [1]): ~0.02 mg/L

B11: 2C6P Fab fragment (Fab, name in Kabat numbering, V domains shown)
VH: EVQLVESGGGLVQPGGSLRLSCAASGFPFSNHWMNWVRQAPGKGLEWVGEIRSKSINSATHYARSVKGRFTISRDDSKNSLYLQMNSLKTEDTAVYYCARNYYGSTYDHWGQGTLVTVSS
VL: EIVLTQSPDFQSVTPKEKVTITCRASQFVGLSIHWYQQKPDQSPKLLIKYASEYMSGVPSRFSGSGSGTDFTLTINSLEAEDAATYYCQQSHSWHFTFGQGTKVEIK
EC50 (read off the curve) (human TNF-α [1]): ~0.02 mg/L
